According to the RNAGym collection of RNA variant scans (doi:10.7554/elife.90254):

B1: OR4K15 (parent)
chain: GUUAACGGUCAUAGGCCAUGGAAACUAGGAGCACCAUUUCGCUGCCAGUGAAGAAAUGAACAAAGAAAAUCUGGGCCAGGCAGGCAUCAAAAGAAAUAGUCUUGCGCUCAACCAGAAAGUCUGUAAUCAUUUUAAGGGUA

Variants of: B1
Test: self-cleavage, relative activity (ratio to wild type); higher = more cleavage; in vitro, sequencing; the parent is a self-cleaving ribozyme

Variant	self-cleavage
A90U U124G	1.66
A92G A95U	1.8
A92G A98G	0.74
A91G C112U	0.01
A92U A126U	1.02
A91U A117G	1.88
A91G U122C	0.42
U97C U103C	0.58
A96G U97C	0.99
A96G U97A	0.94
A92G C113A	0.01
A95G G104A	0.08
A91G U132C	0.88
A91G U132A	0.69
A92G A135U	2.03
A91C U131A	2.16
A90U A111G	0.02
A91G C105A	0.03
A91G C105G	0.01
A94G U103C	0.69
A94G U103G	0.03
A94G U103A	0.39
A92U U122C	1.3
A94G U97C	1.12

Variant	self-cleavage
A95G U133C	1.23
A94G A116C	0.24
A94G A116G	0.39
A94G A116U	0.38
A94G U100C	2.37
A91U A114G	0.62
A91U A114U	0.14
A95G A134G	1.89
U97A A125G	0.86
A92G G119A	2.3
A94C	1.69
A94G	1.39
A94U	1.08
A96C U132C	0.83
A96C U130C	0.69
A92G U103G	0.03
A92G U103C	0.6
U97C A111G	0.02
U97C A111U	0.07
U97A U133C	2.13
A91G G138A	0.95
A96G U108G	0.03
U97C A110U	1.02
A91G A126G	0.55

Variant	self-cleavage
A91G A135G	1.06
A90U A114U	0.04
A90U U130C	1.3
A95G C113U	0.15
A90U U108C	0.01
A96U C113U	0.04
A90U A91G	1.95
A96U U127C	1.7
A91U U122C	1.4
A96C U103C	0.9
A94G A111G	0.03
A92G U131C	0.49
A90G U122A	0.84
A94G A118G	0.8
A94G A129G	1.29
A91U U97C	2.02
A91U U97A	2.19
A95G A129U	1.52
A96U U130C	1.13
A95G A110G	0.15
A95G A110C	0.39
A92G U108C	0.01
A92G U108A	0.03
A96G C109A	0.37

Variant	self-cleavage
A94G A134U	1.58
U97A U131C	1.62
A92C U103C	0.93
U97C A134U	1.69
G93A A111G	0.04
A91G U124A	1.78
A91G U124C	0.62
A92G G137A	1.34
A95U A116G	1
A94G A117G	1.92
U97C G123A	1.14
A91G A134G	0.97
A94C A96G	0.94
A92G U132A	1.23
A92G U132G	1.04
A94G U108A	0.01
A91G A116U	0.12
A95G A114U	0.42
A91G A125G	0.16
A96G U131C	1.73
A91G A110G	0.11
A92U A94U	2.03
A96U U132G	1.55
U97C A125G	0.31

Variant	self-cleavage
A91C A129G	1.15
A95G U97C	1.23
A95G G106A	0
A90U U100C	2.02
A90U U100A	0.15
A91G U133C	1.1
A92C U124C	0.52
A95C A110G	0.16
A92G A110G	0.17
A96G A114G	0.44
G93A A126G	2.16
U97A A140G	1.98
A92G U127C	0.9
A92C A96G	1.73
A90U A118G	1.24
A90G U127A	2.66
A94G A98G	0.27
A95G U139G	2.68
A95G U139C	2.07
A95G U139A	2.01
A92G U97C	1.57
A90U U133C	1.61
A91U A135U	1.6
A95G A126G	1.12

Variant	self-cleavage
A95G U103C	1.25
A95G U103G	0.06
A96G U100C	2.42
A96U A125G	0.61
A91G C128A	0.44
A92C C101A	0.13
U97A A111G	0.03
A96G U127C	0.58
A96G U127A	2.73
A92G A114G	0.29
A92G A114U	0.02
A92G C101U	0.12
A91G A111G	0.01
A96G A110C	0.15
A96G G136A	2.06
A94U A111U	0.12
A94U A111G	0.02
A90G U139C	1.2
A92C A111G	0.03
A92C A129G	1.66
A91G A118U	0.53
A91G A118C	0.47
A95U A117G	2.29
A91C U120C	0.94

Variant	self-cleavage
A94U C107U	0.01
A92U A110U	1.74
A95G A125G	1.02
A91U A111U	0.23
A92C U132C	1.05
A92G U100C	1.84
A95G U127G	2.23
A91U A95G	2.58
A96G A125G	0.69
A96G A125U	1.42
A91G G93A	1.82
A95U A111G	0.05
A90G U132C	1.12
A90G U132A	0.56
A94U U100C	2.56
A94G U120C	1.02
A94G U130A	1.41
A94G U130C	1.16
A96G U103C	1.27
A95G A98U	1.77
U97A	1.75
U97C	0.71
A94G U124C	0.21
